In patent US8697714B2, “Quinazolinone based fluorogenic probes” (Nanyang Technological University, priority 2010, dated 2014):

Key:
[1] = substrate: NCCCOc1ccc(Cl)cc1-c1nc2ccc(Cl)cc2c(=O)[nH]1; assay: Enzymatic kinetics of MAO-HPQ 1 oxidation (Lineweaver-Burk plot), MAO B; format: biochemical; conditions: other: MAO B, Tris-buffer 100 mM pH 7.90, 25° C., pH 7.9
Protocol: (§1) The enzyme kinetics was carried out in Tris-buffer (100 mM, pH 7.90) at 25° C. The enzymatic oxidation of fluorogenic substrate MAO-HPQ 1 was monitored in Varian Cary eclipse Fluorescence spectrophotometer. To a series of different MAO-HPQ 1 substrate concentration (ranged from 0˜250 μM) were added a solution of MAO A or MAO B enzyme with final concentration of […] was added to adjust the final volume to 100 μl. The rate of enzymatic oxidation was monitored with the increase of fluorescent enhancement at 530 nm. The values of the enzyme kinetic parameters (Km and Kcat) were determined from the standard Lineweaver-Burk plot, the double-reciprocal plot of the reaction rate versus MAO-HPQ 1 concentration.
(§2) Measurement of the fluorescent signal at different substrate concentrations provided the Michaelis-Menten kinetics constants.

[2] = substrate: NCCCOc1ccc(Cl)cc1-c1nc2ccc(Cl)cc2c(=O)[nH]1; assay: Enzymatic kinetics of MAO-HPQ 1 oxidation (Lineweaver-Burk plot), MAO A; format: biochemical; conditions: other: MAO A, Tris-buffer 100 mM pH 7.90, 25° C., pH 7.9
Protocol: as §1, §2

| Protein | Km [1] [µM] | kcat [1] [s⁻¹] | kcat/Km [1] [M⁻¹ s⁻¹] | Km [2] [µM] | kcat [2] [s⁻¹] |
| --- | --- | --- | --- | --- | --- |
| MAO B (Homo sapiens) (protein, purchased Sigma Aldrich) MSNKCDVVVVGGGISGMAAAKLLHDSGLNVVVLEARDRVGGRTYTLRNQKVKYVDLGGSYVGPTQNRILRLAKELGLETYKVNEVERLIHHVKGKSYPFRGPFPPVWNPITYLDHNNFWRTMDDMGREIPSDAPWKAPLAEEWDNMTMKELLDKLCWTESAKQLATLFVNLCVTAETHEVSALWFLWYVKQCGGTTRIISTTNGGQERKFVGGSGQVSERIMDLLGDRVKLERPVIYIDQTRENVLVETLNHEMYEAKYVISAIPPTLGMKIHFNPPLPMMRNQMITRVPLGSVIKCIVYYKEPFWRKKDYCGTMIIDGEEAPVAYTLDDTKPEGNYAAIMGFILAHKARKLARLTKEERLKKLCELYAKVLGSLEALEPVHYEEKNWCEEQYSGGCYTTYFPPGILTQYGRVLRQPVDRIYFAGTETATHWSGYMEGAVEAGERAAREILHAMGKIPEDEIWQSEPESVDVPAQPITTTFLERHLPSVPGLLRLIGLTTIFSATALGFLAHKRGLLVRV | 106.8 ± 5.06 | 0.141 ± 0.007 | 1320 |  |  |
| MAO A (Homo sapiens) (protein, purchased Sigma Aldrich) MENQEKASIAGHMFDVVVIGGGISGLSAAKLLTEYGVSVLVLEARDRVGGRTYTIRNEHVDYVDVGGAYVGPTQNRILRLSKELGIETYKVNVSERLVQYVKGKTYPFRGAFPPVWNPIAYLDYNNLWRTIDNMGKEIPTDAPWEAQHADKWDKMTMKELIDKICWTKTARRFAYLFVNINVTSEPHEVSALWFLWYVKQCGGTTRIFSVTNGGQERKFVGGSGQVSERIMDLLGDQVKLNHPVTHVDQSSDNIIIETLNHEHYECKYVINAIPPTLTAKIHFRPELPAERNQLIQRLPMGAVIKCMMYYKEAFWKKKDYCGCMIIEDEDAPISITLDDTKPDGSLPAIMGFILARKADRLAKLHKEIRKKKICELYAKVLGSQEALHPVHYEEKNWCEEQYSGGCYTAYFPPGIMTQYGRVIRQPVGRIFFAGTETATKWSGYMEGAVEAGERAAREVLNGLGKVTEKDIWVQEPESKDVPAVEITHTFWERNLPSVSGLLKIIGFSTSVTALGFVLYKYKLLPRS |  |  |  | 146.1 ± 7.21 | 0.163 ± 0.00817 |
